{"source": "patent US20190376133", "tested_on": "T1, Pol6-67-X2 (Clostridium phage phiCPV4)", "T1 sequence": "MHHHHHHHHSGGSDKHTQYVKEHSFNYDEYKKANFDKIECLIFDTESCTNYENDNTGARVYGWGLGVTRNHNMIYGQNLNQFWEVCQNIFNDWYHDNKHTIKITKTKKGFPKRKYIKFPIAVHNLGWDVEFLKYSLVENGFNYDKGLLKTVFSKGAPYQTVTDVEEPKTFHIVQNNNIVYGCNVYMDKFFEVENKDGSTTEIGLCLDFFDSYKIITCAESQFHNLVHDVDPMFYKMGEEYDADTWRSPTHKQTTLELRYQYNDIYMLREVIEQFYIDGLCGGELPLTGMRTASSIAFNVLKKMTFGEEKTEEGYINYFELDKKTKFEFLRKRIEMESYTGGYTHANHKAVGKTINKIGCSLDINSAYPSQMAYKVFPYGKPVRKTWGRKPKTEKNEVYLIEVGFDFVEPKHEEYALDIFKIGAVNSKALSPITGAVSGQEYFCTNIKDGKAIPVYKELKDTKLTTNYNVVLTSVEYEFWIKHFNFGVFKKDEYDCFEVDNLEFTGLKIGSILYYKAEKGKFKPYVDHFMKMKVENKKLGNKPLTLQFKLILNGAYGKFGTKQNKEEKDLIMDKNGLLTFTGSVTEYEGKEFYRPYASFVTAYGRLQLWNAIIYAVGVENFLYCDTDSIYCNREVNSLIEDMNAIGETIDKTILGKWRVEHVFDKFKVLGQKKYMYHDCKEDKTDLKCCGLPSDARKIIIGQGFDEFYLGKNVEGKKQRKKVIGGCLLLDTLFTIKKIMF", "conditions": "5'-desthiobiotin-TEG; iSpC3 spacer between SEQ 15 and SEQ 22; 8x polymerase (26% at 1x); bound at 40 C with 1.2 uM polyphosphate nucleotides; extension 5 min at 30 C with 5 mM MgCl2, 10 uM nucleotides; % bound correlates …"}
{"sequence": "ACTGCTGATCTGTTCCTGAATCGACTACTACTATCATCATACCACCTCAGCTGCACGTTAAGTGCAGCTGAGGTGG [Fluorescent Hairpin DNA template]", "values": [{"measurement": "activity", "result": 66, "unit": "% extension"}]}
